The values below come from article PMC6363758, “Zinc regulates ERp44-dependent protein quality control in the early secretory pathway” (Nature Communications, 2019).

Experiment [1] deals with T1, Ero1α Cys104/Cys131Cys166Ala mutant (recombinant) (UniProt Q96HE7 24-468, Cys104/Cys131Cys166Ala | Cys104/Cys131Cys166Ala | Cys104/Cys131Cys166Ala).
T1 construct: Ero1α with Cys104, Cys131 and Cys166 replaced by Ala; used in all the in vitro experiments
T1 sequence (looked up): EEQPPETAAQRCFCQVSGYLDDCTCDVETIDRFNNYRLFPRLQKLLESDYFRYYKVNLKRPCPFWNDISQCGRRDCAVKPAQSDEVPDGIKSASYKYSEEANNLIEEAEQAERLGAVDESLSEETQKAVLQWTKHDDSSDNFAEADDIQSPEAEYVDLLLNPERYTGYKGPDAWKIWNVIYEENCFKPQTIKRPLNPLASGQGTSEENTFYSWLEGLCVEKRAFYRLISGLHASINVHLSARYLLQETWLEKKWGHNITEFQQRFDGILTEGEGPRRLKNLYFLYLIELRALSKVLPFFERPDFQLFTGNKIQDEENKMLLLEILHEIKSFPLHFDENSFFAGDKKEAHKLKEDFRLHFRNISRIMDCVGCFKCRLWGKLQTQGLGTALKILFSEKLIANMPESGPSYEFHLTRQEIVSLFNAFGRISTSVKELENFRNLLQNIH
The experiment is described as follows: ITC; 420 µM Ero1α injected into 30 µM ERp44 WT, no Zn2+; 20 mM BisTris-HCl pH 6.2, 150 mM NaCl, 283 K. The note with it: both partners purified. In general terms: ITC needs no label: the signal is the heat of the interaction.

In experiment [2] the target is T1, Ero1α Cys104/Cys131Cys166Ala mutant …. The experiment is described as follows: ITC; 200 µM ERp44 injected into 15 µM Ero1α and 15 µM ZnCl2; 20 mM BisTris-HCl pH 6.2, 150 mM NaCl, 283 K. The following applies: both partners purified.

B1: ERp44 WT (recombinant) (natural protein)
chain: EITSLDTENIDEILNNADVALVNFYADWCRFSQMLHPIFEEASDVIKEEFPNENQVVFARVDCDQHSDIAQRYRISKYPTLKLFRNGMMMKREYRGQRSVKALADYIRQQKSDPIQEIRDLAEITTLDRSKRNIIGYFEQKDSDNYRVFERVANILHDDCAFLSAFGDVSKPERYSGDNIIYKPPGHSAPDMVYLGAMTNFDVTYNWIQDKCVPLVREITFENGEELTEEGLPFLILFHMKEDTESLEIFQNEVARQLISEKGTINFLHADCDKFRHPLLHIQKTPADCPVIAIDSFRHMYVFGDFKDVLIPGKLKQFVFDLHSGKLHREFHHGPDPTDTAPGEQAQDVASSPPESSFQKLAPSEYRYTLLRDRDEL
notes: ERp44, chaperone of the PDI family; Probably the mature protein without its signal peptide (surmise)
B1: the results for the Kd in experiment [1] and in experiment [2] were 1310 nM and 220 nM, respectively.
